Measurements reported in article PMC314469, “Protein Interaction Networks by Proteome Peptide Scanning” (PLoS Biology, 2004).

T1: Myo5 SH3 (MYO5_YEAST), Q04439
T1 chain: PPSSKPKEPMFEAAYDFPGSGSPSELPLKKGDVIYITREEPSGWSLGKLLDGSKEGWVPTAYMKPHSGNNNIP

T2: Boi2 SH3 (BOI2_YEAST), P39969
T2 chain: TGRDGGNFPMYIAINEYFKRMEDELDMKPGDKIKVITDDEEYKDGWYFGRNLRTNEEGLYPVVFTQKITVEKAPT

T3: Rvs167 SH3 (RV167_YEAST), P39743
T3 chain: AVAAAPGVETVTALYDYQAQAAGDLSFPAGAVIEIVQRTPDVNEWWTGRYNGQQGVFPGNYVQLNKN

T4: Yfr024 SH3 (LSB3_YEAST), P43603
T4 chain: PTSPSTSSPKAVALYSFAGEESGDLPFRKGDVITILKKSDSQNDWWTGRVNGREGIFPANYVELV

T5: Yhr016c SH3 (YSC84_YEAST), P32793
T5 chain: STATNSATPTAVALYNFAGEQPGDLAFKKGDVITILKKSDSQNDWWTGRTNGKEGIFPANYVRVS

T6: Boi1 SH3 (BOI1_YEAST), P38041
T6 chain: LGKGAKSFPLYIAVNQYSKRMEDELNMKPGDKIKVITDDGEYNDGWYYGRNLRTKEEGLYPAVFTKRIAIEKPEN


Tests used:
Test in all cases: SPOT array
[1] = target: T1, Myo5 SH3 (MYO5_YEAST), Q04439
[2] = target: T2, Boi2 SH3 (BOI2_YEAST), P39969
[3] = target: Sho1 SH3 (SHO1_YEAST), P40073
[4] = target: T3, Rvs167 SH3 (RV167_YEAST), P39743
[5] = target: T4, Yfr024 SH3 (LSB3_YEAST), P43603
[6] = target: T5, Yhr016c SH3 (YSC84_YEAST), P32793
[7] = target: T6, Boi1 SH3 (BOI1_YEAST), P38041

Chain of Sho1 SH3 (SHO1_YEAST), P40073 (P40073 295-366): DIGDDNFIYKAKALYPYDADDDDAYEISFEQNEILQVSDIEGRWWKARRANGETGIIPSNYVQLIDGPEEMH

Binder | normalised SPOT signal, Boehringer light units (BLU); mean over the file's lines of this peptide [1] | normalised SPOT signal, Boehringer light units (BLU); mean over the file's lines of this peptide [2] | normalised SPOT signal, Boehringer light units (BLU); mean over the file's lines of this peptide [3] | normalised SPOT signal, Boehringer light units (BLU); mean over the file's lines of this peptide [4] | normalised SPOT signal, Boehringer light units (BLU); mean over the file's lines of this peptide [5] | normalised SPOT signal, Boehringer light units (BLU); mean over the file's lines of this peptide [6] | normalised SPOT signal, Boehringer light units (BLU); mean over the file's lines of this peptide [7]
KLVLRNVPILPILN [YBL008W 776-789] | 303 | 17.3 | 24.2 | 383 | 1510 | 74.5 | 41.9
KKIIKDVPGTPSDK [YLR079W 164-177] | 163 | 5.6 | 155 | 65.3 | 16.7 | 20 | 3810
KLPKKFPPPTPLLE [YER172C 1312-1325] | 19700 | 0 | 69.2 | 10.1 | 39.9 | 6 | 821
KKKKKNGPGAPQGY [YGR245C 314-327] | 329 | 20.2 | 106 | 23.5 | 159 | 56.7 | 329
KKNDRPSPLKPIQH [YKL101W 860-873] | 341 | 0 | 67.4 | 49.2 | 254 | 44.4 | 2190
KMAKKLLPYKPHNS [YBR270C 208-221] | 708 | 9.1 | 522 | 37.6 | 182 | 37.4 | 156
KKVIRNYPGHPEGT [YDR364C 152-165] | 418 | 24.6 | 64.4 | 29 | 34.3 | 14 | 582
KKHDKLYPKYPSVK [YFL004W 130-143] | 340 | 16.5 | 114 | 61.3 | 184 | 37.6 | 435
KLKIKILPEQPQLE [YDR407C 838-851] | 261 | 0 | 548 | 56.9 | 6 | 17.7 | 1350
KLHEKYFPDLPKEV [YDR527W 252-265] | 110 | 15.3 | 30.2 | 57.3 | 30.7 | 4.5 | 90.7

Second part, the binder after the results:

normalised SPOT signal, Boehringer light units (BLU); mean over the file's lines of this peptide [1] | normalised SPOT signal, Boehringer light units (BLU); mean over the file's lines of this peptide [2] | normalised SPOT signal, Boehringer light units (BLU); mean over the file's lines of this peptide [3] | normalised SPOT signal, Boehringer light units (BLU); mean over the file's lines of this peptide [4] | normalised SPOT signal, Boehringer light units (BLU); mean over the file's lines of this peptide [5] | normalised SPOT signal, Boehringer light units (BLU); mean over the file's lines of this peptide [6] | normalised SPOT signal, Boehringer light units (BLU); mean over the file's lines of this peptide [7] | Binder
916 | 27.1 | 126 | 153 | 756 | 86.9 | 599 | KLYYRHRPQKPVRT [YOL164W 144-157]
523 | 38 | 102 | 65.1 | 540 | 179 | 541 | KKNKKKVPLNPLAK [YNL050C 247-260]
407 | 33.3 | 72.4 | 415 | 164 | 12.6 | 674 | KKHDKLHPNYPSVK [YPL019C 129-142]
919 | 1.5 | 1390 | 810 | 2670 | 165 | 309 | KLNKRVLPSKPKKS [YLR183C 350-363]
720 | 1 | 103 | 147 | 190 | 89.5 | 779 | KKIAKGDPKIPMQN [YNL155W 157-170]
1010 | 66.4 | 136 | 143 | 291 | 70.6 | 725 | KKNPKKSPMGPQGA [YPL214C 146-159]
